# Target: T1, G93A-hSOD1-CFP (human, UniProt P00441 2-154, G93A)
# T1 construct: Transiently expressed in NSC-34 cells; FRET donor; also called G93A SOD1-CFP; pECFP-G93A-hSOD1; not shown: CFP (from pECFP plasmid) attached to the C-terminus of SOD1
# Experiment: FACS sorting of cells without G93A SOD1-CFP/MDH1-YFP FRET after transfection of the myc-tagged MDH1 peptide library
# T1 sequence (P00441 2-154 G94A): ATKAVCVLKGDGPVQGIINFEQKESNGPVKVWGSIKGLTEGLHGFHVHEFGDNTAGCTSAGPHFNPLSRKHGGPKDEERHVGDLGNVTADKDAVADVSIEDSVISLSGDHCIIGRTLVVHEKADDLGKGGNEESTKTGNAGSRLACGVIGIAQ
row,binding result,Binder
1,binds,SWLKGEFITTVQQRGAAVIKARK (Expressed from a plasmid inside NSC-34 cells; not shown: human myc tag in frame with the peptide) [myc-tagged peptide 217-239 of cytMDH]
2,binds,GQIAHSLLYSIGNG (Expressed from a plasmid inside NSC-34 cells; also called myc-tagged 14-27 peptide; not shown: human myc tag in frame with the peptide) [myc-tagged peptide 14-27 of cytMDH]

# Reference: patent US20100279943A1 (RAMAT AT TEL AVIV UNIVERSITY, published 2010)
